Data published in article PMC12607626, “Separation of Pseudomonas aeruginosa type IV pilus-dependent twitching motility and surface-sensing responses” (mBio, 2025).

Target: the molecule itself
Assay: crystal structure; X-ray, 4.5 Å; sitting-drop vapour diffusion at 20 °C; 12.5 µM ATP in the final buffer, no nucleotide density; four protomers in the asymmetric unit, two nearly identical C3 hexamers identified from the crystal packing

B1: PilU (Pseudomonas aeruginosa type IVa pilus retraction ATPase paralog of PilT) (enzyme)
chain: MEFEKLLRLMVEKGGSDLFITAGVPPSMKVNGRVMPVTKTPLSPEQTRETVLGVMNEQQRRDFAENHECNFAISARGIGRFRVSAFYQRNLVGMVLRRIETNIPTLEELKLPEILKKLALTKRGLVIFVGATGTGKSTSLAAMIGYRNKNSTGHIISIEDPIEYIHQHQGCIVTQREVGLDTDSFEVALKNTLRQAPDVIMIGEVRSRETMDHAVAFAETGHLCLATLHANNANQALERIIHFFPADRHGQVWMDLSLNLKAIVAQQLVPTPDGKGRRAVIEVLLNTPLAADLIRKGEVHELKPLMKRSTEQGMQTFDQALYQLYTQGEITYEDALAHADSANDLRLMIKLGSESDADHLSSLTQGLSLEITDDDPAGRRFR
notes: PilU, P. aeruginosa; the pilU gene was amplified by PCR and cloned into pET28a; the 30 C-terminal residues were not resolved in the crystal; also called PilU hexamer; source: E. coli BL21 (DE3), pET28a, purified (HiTrap Chelating HP, size-exclusion chromatography)
stoichiometry N: 6
